The results in this text go back to patent US20210268073A1, “METHODS OF REDUCING POLYSORBATE DEGRADATION IN DRUG FORMULATIONS” (Regeneron Pharmaceuticals, Inc., priority 2020, published 2021).

For this data set the following is noted: pH 6.

B1: human liver carboxylesterase 1: commercial human liver carboxylesterase 1 purchased from Abcam, SEQ ID NO: 12 (protein, listed as Homo sapiens)
chain: MWLRAFILATLSASAAWGHPSSPPVVDTVHGKVLGKFVSLEGFAQPVAIFLGIPFAKKPLGPLRFTPPQPAEPWSFVKNATSYPPMCTQDPKAGQLLSELFTNRKENIPLKLSEDCLYLNIYTPADLTKKNRLPVMVWIHGGGLMVGAASTYDGLALAAHENVVVVTIQYRLGIWGFFSTGDEHSRGNWGHLDQVAALRWVQDNIASFGGNPGSVTIFGESAGGESVSVLVLSPLAKNLFHRAISESGVALTSVLVKKGDVKPLAEQIAITAGCKTTTSAVMVHCLRQKTEEELLETTLKMKFLSLDLQGDPRESQPLLGTVIDGMLLLKTPEELQAERNFHTVPYMVGINKQEFGWLIPMQLMSYPLSEGQLDQKTAMSLLWKSYPLVCIAKELIPEATEKYLGGTDDTVKKKDLFLDLIADVMFGVPSVIVARNHRDAGAPTYMYEFQYRPSFSSDMKPKTVIGDHGDELFSVFGAPFLKEGASEEEIRLSKMVMKFWANFARNGNPNGEGLPHWPEYNQKEGYLQIGANTQAAQKLKDKEVAFWTNLFAKKAVEKPPQTEHIEL
As for B1, the “PS80 degradation pattern compared with mAb-1” value was “equivalent degradation pattern”.
